This passage reports other: log2 relative change results from PMC8384158.

Targets include GANAB; CCT2; HSPA2; HSPA9; UBA1; PSMD2; PDIA4; HSP90AB1; PSMB6; RPN2; TCP1; CCT5; SERPINH1; UCHL1; ERP29; CCT3; CCT6A.
Common to all, as to assay: TAP pull-down interactome analysis (LC-MS/MS)
Conditions in all cases: MCF-7 cells; read off a plot

Regarding “TAP–Bag-1S (from UniProt Q99933-4) R193D”, the other: log2 relative change with GANAB was -0.15 log2; with CCT2 it was -0.05 log2; in the test with HSPA2 it was 0.77 log2; with HSPA9 it was -0.07 log2; with UBA1, 0.37 log2; in the test with PSMD2 it was -1.1 log2. In addition, the other: log2 relative change with PDIA4 was -0.65 log2; with HSP90AB1, -0.65 log2; with PSMB6, -0.85 log2; in the test with RPN2 it was -1.5 log2; with TCP1, 0.5 log2; with CCT5 it was -0.45 log2. Also, the other: log2 relative change with SERPINH1 is -0.12 log2; in the test with UCHL1 it was -0.77 log2; with ERP29, 1.5 log2; with CCT3, 1 log2.
“TAP–Bag-1S (from UniProt Q99933-4) I103K”: the other: log2 relative change was -0.47 log2 with GANAB; -0.82 log2 in the test with CCT2; 0.7 log2 in the test with HSPA2; -0.32 log2 with HSPA9; -0.2 log2 with UBA1; -1.6 log2 with CCT6A. The other: log2 relative change with PSMD2 was -2 log2; with PDIA4, -0.8 log2; with HSP90AB1, -1.2 log2; with PSMB6 it was -0.9 log2; with RPN2 it was -1.9 log2; with TCP1, -1.7 log2. Also, the other: log2 relative change with CCT5 was -1.5 log2; with SERPINH1, -0.85 log2; with ERP29, -2.3 log2.
As for “TAP–Bag-1S (from UniProt Q99933-4) R161D”, the other: log2 relative change with GANAB is -1.8 log2; with CCT2, -1.6 log2; with HSPA9, -0.32 log2; with UBA1, -2 log2; with PSMD2, -2.1 log2; with PDIA4 it was -0.7 log2. Also, the other: log2 relative change is -1.9 log2 with HSP90AB1; -2.3 log2 with PSMB6; -0.52 log2 in the test with TCP1; 2 log2 with CCT5; -1.3 log2 in the test with SERPINH1; -1.4 log2 with CCT3.
Turning to “TAP–Bag-1S (from UniProt Q99933-4) R162E”, the other: log2 relative change in the test with GANAB is -0.52 log2; with CCT2 it was -1.5 log2; with HSPA9 it was -1.7 log2; with UBA1, -0.47 log2; with CCT6A it was -2 log2; with PDIA4, -1.8 log2. In addition, the other: log2 relative change with HSP90AB1 is -1.7 log2; in the test with PSMB6, -2.3 log2; in the test with RPN2 it was -2.1 log2; with TCP1 it was -1.9 log2; with CCT5 it was -0.35 log2; with SERPINH1, -1.1 log2. In the test with CCT3, this substance had an other: log2 relative change of -1.2 log2.
